Reference: the supplement of paper PMC9112550, “Optimization of the antimicrobial peptide Bac7 by deep mutational scanning” (BMC Biology, 2022)

What follows are sequences tested on Escherichia coli TOP10 (assay: shrunken log2 fold change of peptide-encoding DNA abundance (4.5 h post-induction vs induction); higher = less antimicrobial activity (less host growth inhibition)). Conditions: time post-induction: 4.5 h; library: site-saturation at positions 5, 18, 19, 20.
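Also: peptides expressed intracellularly from a pBAD plasmid library in pooled LB shake-flask culture, induced with 0.3% L-arabinose, DNA abundance read by NGS, three biological replicates, DESeq2 with apeglm shrinkage.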

Sequence	shrunken log2 fold change
RRIRWRPPRLPRPRPRPTGTPRP	0.288
RRIRSRPPRLPRPRPRPNDWPRP	0.179
RRIRHRPPRLPRPRPRPQFGPRP	-0.184
RRIRHRPPRLPRPRPRPLGEPRP	0.433
RRIRYRPPRLPRPRPRPNDQPRP	-0.819
RRIRCRPPRLPRPRPRPRPVPRP	0.766
RRIRRRPPRLPRPRPRPQCFPRP	0.212
RRIRSRPPRLPRPRPRPPYLPRP	-0.45
RRIRSRPPRLPRPRPRPIFEPRP	0.0577
RRIRYRPPRLPRPRPRPYIGPRP	-0.0919
RRIRCRPPRLPRPRPRPQMDPRP	-0.248
RRIRPRPPRLPRPRPRPVYSPRP	-0.297
RRIRDRPPRLPRPRPRPNGEPRP	0.0768
RRIRSRPPRLPRPRPRPFRRPRP	-0.261
RRIRQRPPRLPRPRPRPMSNPRP	0.0758
RRIRVRPPRLPRPRPRPILQPRP	-0.399
RRIRWRPPRLPRPRPRPYAHPRP	-0.056
RRIRSRPPRLPRPRPRPHNMPRP	-0.798
RRIRLRPPRLPRPRPRPFDHPRP	-0.0264
RRIRMRPPRLPRPRPRPPCQPRP	0.505
RRIRIRPPRLPRPRPRPSLWPRP	0.211
RRIRMRPPRLPRPRPRPDYVPRP	-0.183
RRIRKRPPRLPRPRPRPPHLPRP	0.332
RRIRQRPPRLPRPRPRPVFRPRP	-0.0986
RRIRGRPPRLPRPRPRPNKCPRP	0.139

Sequence	shrunken log2 fold change
RRIRKRPPRLPRPRPRPRLWPRP	1.01
RRIRVRPPRLPRPRPRPKWDPRP	0.0182
RRIRQRPPRLPRPRPRPLMWPRP	0.0648
RRIRHRPPRLPRPRPRPDNLPRP	0.0139
RRIRHRPPRLPRPRPRPESWPRP	-0.00647
RRIRWRPPRLPRPRPRPDLQPRP	-0.0193
RRIRWRPPRLPRPRPRPCHSPRP	-0.286
RRIRWRPPRLPRPRPRPPLDPRP	0.57
RRIRIRPPRLPRPRPRPKDEPRP	-0.00382
RRIRYRPPRLPRPRPRPPEIPRP	-0.0815
RRIRTRPPRLPRPRPRPAKQPRP	-0.0125
RRIRKRPPRLPRPRPRPASMPRP	0.116
RRIRIRPPRLPRPRPRPDSIPRP	-0.00884
RRIRCRPPRLPRPRPRPWEYPRP	0.0155
RRIRDRPPRLPRPRPRPRPLPRP	0.39
RRIRDRPPRLPRPRPRPWGKPRP	-0.194
RRIRKRPPRLPRPRPRPMISPRP	0.18
RRIRGRPPRLPRPRPRPCDNPRP	0.0785
RRIRNRPPRLPRPRPRPTYFPRP	-0.147
RRIRFRPPRLPRPRPRPLVRPRP	-0.102
RRIRSRPPRLPRPRPRPKWTPRP	-0.0493
RRIRMRPPRLPRPRPRPQGNPRP	-0.0324
RRIRVRPPRLPRPRPRPTSPPRP	0.0262
RRIRQRPPRLPRPRPRPFVNPRP	-0.545
RRIRNRPPRLPRPRPRPKRIPRP	-0.107

Sequence	shrunken log2 fold change
RRIRTRPPRLPRPRPRPGQPPRP	0.161
RRIRIRPPRLPRPRPRPKFYPRP	-0.713
RRIRWRPPRLPRPRPRPLNVPRP	-0.0654
RRIRHRPPRLPRPRPRPKYQPRP	-0.145
RRIRFRPPRLPRPRPRPEWIPRP	-0.0219
RRIRARPPRLPRPRPRPDRTPRP	0.192
RRIRYRPPRLPRPRPRPNEEPRP	-0.0952
RRIRQRPPRLPRPRPRPNSLPRP	-0.489
RRIRNRPPRLPRPRPRPYMWPRP	-0.328
RRIRHRPPRLPRPRPRPQQCPRP	-0.0705
RRIRLRPPRLPRPRPRPIPWPRP	0.0447
RRIRYRPPRLPRPRPRPESCPRP	0.0195
RRIRNRPPRLPRPRPRPEEVPRP	-0.00192
RRIRMRPPRLPRPRPRPWICPRP	0.0396
RRIRGRPPRLPRPRPRPFQIPRP	-0.0147
RRIRFRPPRLPRPRPRPQWPPRP	0.192
RRIRVRPPRLPRPRPRPASIPRP	-0.437
RRIRRRPPRLPRPRPRPTTDPRP	0.647
RRIRPRPPRLPRPRPRPTYGPRP	-0.171
RRIRARPPRLPRPRPRPYETPRP	-0.0398
RRIRERPPRLPRPRPRPWDWPRP	0.0223
RRIRNRPPRLPRPRPRPKHRPRP	0.0319
RRIRVRPPRLPRPRPRPMDVPRP	0.0265
RRIRLRPPRLPRPRPRPEVVPRP	0.0493
RRIRERPPRLPRPRPRPFGLPRP	-0.0181

Sequence	shrunken log2 fold change
RRIRFRPPRLPRPRPRPSEWPRP	-0.028
RRIRARPPRLPRPRPRPRRSPRP	0.743
RRIRVRPPRLPRPRPRPTFSPRP	-0.3
RRIRLRPPRLPRPRPRPEYRPRP	-0.0221
RRIRWRPPRLPRPRPRPGCKPRP	0.123
RRIRKRPPRLPRPRPRPAPAPRP	1.05
RRIRDRPPRLPRPRPRPQHCPRP	0.0461
RRIRSRPPRLPRPRPRPEVCPRP	0.11
RRIRPRPPRLPRPRPRPVDYPRP	0.0307
RRIRVRPPRLPRPRPRPWVCPRP	0.133
RRIRGRPPRLPRPRPRPYANPRP	0.0266
RRIRGRPPRLPRPRPRPGHSPRP	-0.0314
RRIRWRPPRLPRPRPRPMQKPRP	-0.0122
RRIRRRPPRLPRPRPRPGHTPRP	0.274
RRIRDRPPRLPRPRPRPIVFPRP	-0.0706
RRIRPRPPRLPRPRPRPKACPRP	0.255
RRIRFRPPRLPRPRPRPGSQPRP	-0.117
RRIRSRPPRLPRPRPRPYDDPRP	0.0208
RRIRFRPPRLPRPRPRPTVQPRP	0.0692
RRIRHRPPRLPRPRPRPVEDPRP	-0.0354
RRIRIRPPRLPRPRPRPMYKPRP	-1.13
RRIRVRPPRLPRPRPRPEDVPRP	0.0203
RRIRFRPPRLPRPRPRPPHQPRP	0.301
RRIRCRPPRLPRPRPRPIKDPRP	-0.533
RRIRNRPPRLPRPRPRPEKLPRP	-0.00804

Sequence	shrunken log2 fold change
RRIRLRPPRLPRPRPRPLPKPRP	0.393
RRIRLRPPRLPRPRPRPDLVPRP	0.00214
RRIRMRPPRLPRPRPRPRALPRP	2.22
RRIRLRPPRLPRPRPRPRARPRP	0.619
RRIRPRPPRLPRPRPRPNNNPRP	-0.659
RRIRSRPPRLPRPRPRPRPGPRP	0.658
RRIRYRPPRLPRPRPRPKGFPRP	-0.0319
RRIRHRPPRLPRPRPRPAQCPRP	0.101
RRIRPRPPRLPRPRPRPRSQPRP	0.263
RRIRLRPPRLPRPRPRPNHMPRP	-0.326
RRIRSRPPRLPRPRPRPETRPRP	0.192
RRIRVRPPRLPRPRPRPLKRPRP	0.0621
RRIRVRPPRLPRPRPRPQDCPRP	-0.172
RRIRDRPPRLPRPRPRPKQIPRP	-0.0135
RRIRSRPPRLPRPRPRPDQMPRP	0.049
RRIRPRPPRLPRPRPRPMKPPRP	0.00333
RRIRCRPPRLPRPRPRPCQSPRP	0.00299
RRIRARPPRLPRPRPRPLYRPRP	-0.28
RRIRNRPPRLPRPRPRPDYKPRP	0.0574
RRIRERPPRLPRPRPRPCQRPRP	0.0562
RRIRGRPPRLPRPRPRPIPDPRP	0.238
RRIRHRPPRLPRPRPRPDTTPRP	-0.226
RRIRFRPPRLPRPRPRPWYDPRP	0.13
RRIRGRPPRLPRPRPRPCKPPRP	0.108
RRIRIRPPRLPRPRPRPVSVPRP	-0.191

Sequence	shrunken log2 fold change
RRIRQRPPRLPRPRPRPIKEPRP	-0.023
RRIRQRPPRLPRPRPRPAPLPRP	0.451
RRIRVRPPRLPRPRPRPNFWPRP	0.137
RRIRLRPPRLPRPRPRPDWYPRP	-0.464
RRIRFRPPRLPRPRPRPSPRPRP	0.426
RRIRERPPRLPRPRPRPQDQPRP	0.0272
RRIRFRPPRLPRPRPRPITLPRP	-0.274
RRIRPRPPRLPRPRPRPAHEPRP	0.356
RRIRERPPRLPRPRPRPWDLPRP	-0.164
RRIRMRPPRLPRPRPRPNIEPRP	0.219
RRIRPRPPRLPRPRPRPTALPRP	0.0271
RRIRYRPPRLPRPRPRPLAYPRP	-0.15
RRIRKRPPRLPRPRPRPFSTPRP	-0.187
RRIRNRPPRLPRPRPRPNFRPRP	0.0289
RRIRKRPPRLPRPRPRPGNPPRP	0.85
RRIRGRPPRLPRPRPRPAVCPRP	0.938
RRIRVRPPRLPRPRPRPVLMPRP	0.107
RRIRRRPPRLPRPRPRPAINPRP	-0.0133
RRIRPRPPRLPRPRPRPGYFPRP	-0.0323
RRIRCRPPRLPRPRPRPPSPPRP	0.724
RRIRSRPPRLPRPRPRPGCCPRP	0.396
RRIRVRPPRLPRPRPRPAEPPRP	0.218
RRIRHRPPRLPRPRPRPMGEPRP	-0.0135
RRIRGRPPRLPRPRPRPNPLPRP	0.217
RRIRARPPRLPRPRPRPRFVPRP	0.457
